B1: flAgRP: supernatant of 293T cells transfected with full length mouse Agouti-related protein construct with normal AgRP signal peptide (protein, UniProt P56473 1-131, looked up)
chain: MLTAMLLSCVLLLALPPTLGVQMGVAPLKGIRRPDQALFPEFPGLSLNGLKKTTADRAEEVLLQKAEALAEVLDPQNRESRSPRRCVRLHESCLGQQVPCCDPCATCYCRFFNAFCYCRKLGTATNLCSRT
modifications: full-length
notes: supernatant of 293T cells transfected with full length mouse Agouti-related protein construct with normal AgRP signal peptide

Biological target: T1, human MC4R (Homo sapiens, UniProt P32245)
T1 construct: expressed in transfected cells; host or cells: HEK 293T cells, transient transfection with polyethylenimine, co-transfected with CRE-LacZ
T1 sequence (P32245 whole entry): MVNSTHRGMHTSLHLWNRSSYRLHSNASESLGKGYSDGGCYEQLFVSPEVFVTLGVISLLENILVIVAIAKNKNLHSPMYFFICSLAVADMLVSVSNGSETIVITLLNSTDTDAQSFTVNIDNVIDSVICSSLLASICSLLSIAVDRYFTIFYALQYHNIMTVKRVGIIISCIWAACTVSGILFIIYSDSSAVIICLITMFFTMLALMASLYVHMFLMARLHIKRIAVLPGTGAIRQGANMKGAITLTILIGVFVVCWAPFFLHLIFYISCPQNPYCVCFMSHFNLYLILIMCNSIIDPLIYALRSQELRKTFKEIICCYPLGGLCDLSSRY
Assay: LacZ reporter gene assay (MC4R_CRE-LacZ transfected 293T cells)
Format: cell-based
Details: for EC50: 10% of the volume added was supernatant of 293T cells transfected with the named construct, antagonism of MC4R (rightward shift), average of 4 trials, read-out: EC50 of NDP-MSH dose response curve in presence of supernatant
Description: Activation of MC4R in vitro results in an increase in cyclic adenosine monophosphate (cAMP)[27]. In our assay upregulation of cAMP increased LacZ expression through a cAMP responsive element.
Activation of the MC4R was determined using LacZ as a reporter gene. DNA was transfected into cells with polyethylenimine. Fifty nanograms of human MC4R and 10 μg of cAMP-responsive element (CRE)-LacZ were transfected into 293T cells on 10cm dishes. Another five 10cm dishes with 293T cells were transfected with 10 μg of respectively pAAV-GFP, pAAV-flAgRP, pAAV-VWF-AgRP83-132 , pAAV-VWF-αMSH1 and pAAV-VWF-αMSH4. One day after transfection the MC4R_CRE-LacZ cells were transferred to poly-L-lysine coated 96-wells plates. Three days after transfection supernatant of 10cm dishes was removed and used for LacZ reporter assay. […] In addition only forskolin was added to other wells as a positive control for CRE-LacZ transfection and the subsequent colometric reaction. The medium of another plate with MC4R_CRE-LacZ transfected cells was replaced with assay buffer containing serial dilutions of conditioned medium from cells transfected with αMSH1, αMSH4 or GFP. […] After 5-6 hour incubation at 37°C the assay medium was removed and replaced by 40 μl lysisbuffer (phosphate buffered saline (PBS) containing 0.1% Triton-X-100). The plates were stored at -20°C. After thawing of the plates, 80 μl of substrate (0.1 M phosphate buffer, pH7.4, containing 1.6 g/l o-nitrophenyl β-D-galactopyranoside (ONPG, Invitrogen, the Netherlands), 67.5 mM β-mercaptoethanol (Merck, Germany) and 1.5 mM magnesium chloride) was added to each well. Absorbance at 405 nm was measured in a Victor^2 microplate reader (PerkinElmer, Brussels, Belgium).
Data were analyzed with GraphPad Prism (GraphPad Software Inc., California). Competition curves were fitted from duplicate data points using sigmoidal dose response curve with variable slope.

Molecule | EC50 [nM] | Shift of NDP-MSH dose response curve in presence of supernatant (50% of the volume added was supernatant of transfected 293T cells)
VWF-AgRP83-132: minigene product: VWF signal peptide, HA tag, furin site and AgRP83-132; tested as supernatant of transfected 293T cells (SPRRCVRLHESCLGQQVPCCDPCATCYCRFFNAFCYCRKLGTATNLCSRT; not fully specified; Secreted furin-released minigene product; VWF signal peptide, HA tag and RKRR furin site left out; The name 83-132 follows human numbering; it equals mouse precursor 82-131, since the printed primer e) | 0.5 | –
B1 | 1.4 | shifted even further to the right

— PMC2928777, “Neuropeptide delivery to the brain: a von Willebrand factor signal peptide to direct neuropeptide secretion” (BMC Neuroscience, 2010)
